According to the supplement of paper PMC11246515:
± gives the standard deviation of the averaged measurements.

Assay: total protein half-life in vivo (active degradation + dilution); higher = more stable protein
[1] = E. coli NCM3722 delta-clpP delta-lon delta-hslV, growth: N-lim chemostat, doubling time 6 h
[2] = E. coli NCM3722 delta-clpP, growth: N-lim chemostat, doubling time 6 h
[3] = E. coli NCM3722 delta-hslV, growth: N-lim chemostat, doubling time 6 h
[4] = E. coli NCM3722 delta-lon, growth: N-lim chemostat, doubling time 6 h
[5] = E. coli NCM3722 delta-smpB, growth: N-lim chemostat, doubling time 6 h
[6] = wild type E. coli NCM3722, growth: C-lim chemostat, doubling time 3 h
[7] = wild type E. coli NCM3722, growth: C-lim chemostat, doubling time 6 h
[8] = wild type E. coli NCM3722, growth: C-lim chemostat, doubling time 12 h
[9] = wild type E. coli NCM3722, growth: N-lim chemostat, doubling time 6 h
[10] = wild type E. coli NCM3722, growth: N-lim chemostat, doubling time 12 h
[11] = wild type E. coli NCM3722, growth: P-lim chemostat, doubling time 6 h
[12] = wild type E. coli NCM3722, growth: P-lim chemostat, doubling time 12 h

Sequence | total protein half-life in vivo [1] | total protein half-life in vivo [2] | total protein half-life in vivo [3] | total protein half-life in vivo [4] | total protein half-life in vivo [5] | total protein half-life in vivo [6] | total protein half-life in vivo [7] | total protein half-life in vivo [8] | total protein half-life in vivo [9] | total protein half-life in vivo [10] | total protein half-life in vivo [11] | total protein half-life in vivo [12]
MKVKVLSLLVPALLVAGAANAAEVYNKDGNKLDLYGKVDGLHYFSDNKDVDGDQTYMRLGFKGETQVTDQLTGYGQWEYQIQGNSAENENNSWTRVAFAGLKFQDVGSFDYGRNYGVVYDVTSWTDVLPEFGGDTYGSDNFMQQRGNGFATYRNTDFFGLVDGLNFAVQYQGKNGNPSGEGFTSGVTNNGRDALRQNGDGVGGSITYDYEGFGIGGAISSSKRTDAQNTAAYIGNGDRAETYTGGLKYDANNIYLAAQYTQTYNATRVGSLGWANKAQNFEAVAQYQFDFGLRPSLAYLQSKGKNLGRGYDDEDILKYVDVGATYYFNKNMSTYVDYKINLLDDNQFTRDAGINTDNIVALGLVYQF | 7.5928 ± 0.0042 h | 6.32 ± 1.1 h | 6.59 ± 0.66 h | 7.2 ± 0.57 h | 6.24 ± 0.51 h | 3.37 ± 0.1 h | 6.64 ± 0.99 h | 11.6 ± 2 h | 5.94 ± 0.54 h | 12.4 ± 1.4 h | 6.7 ± 0.53 h | 13.9 ± 2.6 h
MKVLVTGATSGLGRNAVEFLCQKGISVRATGRNEAMGKLLEKMGAEFVPADLTELVSSQAKVMLAGIDTLWHCSSFTSPWGTQQAFDLANVRATRRLGEWAVAWGVRNFIHISSPSLYFDYHHHRDIKEDFRPHRFANEFARSKAASEEVINMLSQANPQTRFTILRPQSLFGPHDKVFIPRLAHMMHHYGSILLPHGGSALVDMTYYENAVHAMWLASQEACDKLPSGRVYNITNGEHRTLRSIVQKLIDELNIDCRIRSVPYPMLDMIARSMERLGRKSAKEPPLTHYGVSKLNFDFTLDITRAQEELGYQPVITLDEGIEKTAAWLRDHGKLPR | 6.23 ± 0.075 h | – | 6.37 ± 0.24 h | 5.88 ± 0.54 h | 5.48 ± 0.29 h | 2.62 ± 0.47 h | – | 9.95 ± 0.97 h | 6.14 ± 0.16 h | 12.6 ± 0.48 h | 5.6 ± 0.61 h | 9.9 ± 0.57 h
MKYDTSELCDIYQEDVNVVEPLFSNFGGRASFGGQIITVKCFEDNGLLYDLLEQNGRGRVLVVDGGGSVRRALVDAELARLAVQNEWEGLVIYGAVRQVDDLEELDIGIQAMAAIPVGAAGEGIGESDVRVNFGGVTFFSGDHLYADNTGIILSEDPLDIE [P0A8R0] | 5.37 ± 0.18 h | 5.11 ± 0.26 h | 5.16 ± 0.12 h | 4.57 ± 0.28 h | 4.26 ± 0.1 h | 3.25 ± 0.3 h | 6.31 ± 1.1 h | 13.4 ± 0.22 h | 5.06 ± 0.22 h | 8.11 ± 0.27 h | 6.02 ± 0.41 h | 12.7 ± 1.7 h
MKYKHLILSLSLIMLGPLAHAEEIGSVDTVFKMIGPDHKIVVEAFDDPDVKNVTCYVSRAKTGGIKGGLGLAEDTSDAAISCQQVGPIELSDRIKNGKAQGEVVFKKRTSLVFKSLQVVRFYDAKRNALAYLAYSDKVVEGSPKNAISAVPVMPWRQ [P0AE91] | 5.76 ± 0.34 h | – | 6.57 ± 0.31 h | – | 6.01 ± 0.23 h | 2.92 ± 0.29 h | 5.9682 ± 0.0034 h | 12.1 ± 2.7 h | 6.39 ± 1.3 h | 13.3 ± 0.76 h | 6.41 ± 0.56 h | –
MKYQLTALEARVIGCLLEKQVTTPEQYPLSVNGVVTACNQKTNREPVMNLSESEVQEQLDNLVKRHYLRTVSGFGNRVTKYEQRFCNSEFGDLKLSAAEVALITTLLLRGAQTPGELRSRAARMYEFSDMAEVESTLEQLANREDGPFVVRLAREPGKRENRYMHLFSGEVEDQPAVTDMSNAVDGDLQARVEALEIEVAELKQRLDSLLAHLGD | – | 5.48 ± 0.32 h | 6.03 ± 0.02 h | 6.75 ± 0.25 h | 5.16 ± 0.098 h | 3.01 ± 0.35 h | 6.003 ± 0.036 h | 9.65 ± 0.61 h | 4.69 ± 0.64 h | 10.6 ± 0.71 h | 5.38 ± 0.72 h | 12.8 ± 1.3 h
MKYRIALAVSLFALSAGSYATTLCQEKEQNILKEISYAEKHQNQNRIDGLNKALSEVRANCSDSQLRADHQKKIAKQKDEVAERQQDLAEAKQKGDADKIAKRERKLAEAQEELKKLEARDY | 3.72 ± 0.12 h | 3.7 ± 0.11 h | – | 5.2 ± 0.22 h | 4.66 ± 0.41 h | – | 5.88 h | 7.58 ± 0.055 h | 5.07 ± 1.1 h | 9.61 ± 1.1 h | 4.12 h | 10.6 h
MKYSLGPVLWYWPKETLEEFYQQAATSSADVIYLGEAVCSKRRATKVGDWLEMAKSLAGSGKQIVLSTLALVQASSELGELKRYVENGEFLIEASDLGVVNMCAERKLPFVAGHALNCYNAVTLKILLKQGMMRWCMPVELSRDWLVNLLNQCDELGIRNQFEVEVLSYGHLPLAYSARCFTARSEDRPKDECETCCIKYPNGRNVLSQENQQVFVLNGIQTMSGYVYNLGNELASMQGLVDVVRLSPQGTDTFAMLDAFRANENGAAPLPLTANSDCNGYWRRLAGLELQA | 3.35 h | – | – | – | – | – | – | – | – | – | – | –
MKYVFIEKHQAEFSIKAMCRVLRVARSGWYTWCQRRTRISTRQQFRQHCDSVVLAAFTRSKQRYGAPRLTDELRAQGYPFNVKTVAASLRRQGLRAKASRKFSPVSYRAHGLPVSENLLEQDFYASGPNQKWAGDITYLRTDEGWLYLAVVIDLWSRAVIGWSMSPRMTAQLACDALQMALWRRKRPRNVIVHTDRGGQYCSADYQAQLKRHNLRGSMSAKGCCYDNACVESFFHSLKVECIHGEHFISREIMRATVFNYIECDYNRWRRHSWCGGLSPEQFENKNLA [P0CF81] | 5.16 ± 0.69 h | – | – | – | – | – | – | – | – | – | – | –
MLAFIRFLFAGLLLVISHAFAATVQDEHGTFTLEKTPQRIVVLELSFADALAAVDVIPIGIADDNDAKRILPEVRAHLKPWQSVGTRAQPSLEAIAALKPDLIIADSSRHAGVYIALQQIAPVLLLKSRNETYAENLQSAAIIGEMVGKKREMQARLEQHKERMAQWASQLPKGTRVAFGTSREQQFNLHTQETWTGSVLASLGLNVPAAMAGASMPSIGLEQLLAVNPAWLLVAHYREESIVKRWQQDPLWQMLTAAQKQQVASVDSNTWARMRGIFAAERIAADTVKIFHHQPLTVVK | – | – | – | – | – | – | 5.67 h | 7.06 h | – | – | – | –
MLAISSNLSKMIIFIFAIIIIVVLCVITYLYLYKDESLVSKHYINYMAIPENDGVFTWLPDFFPHVAVDISIYTNVEDDYFFLIFP | 3.41 h | – | 5.43 h | – | – | – | – | – | – | – | – | –
